# Assay results published in US20240301063A1 (SHANDONG NEW TIME PHARMACEUTICAL, published 2024).
# B1: bispecific antibody AP163 (bispecific antibody)
# chain: QVQLVQSGAEVKKPGSSVKVSCKASGGTFSNYWMHWVRQAPGQGLEWMGATYRGHSDTYYNQKFKGRVTITADKSTSTAYMELSSLRSEDTAVYYCARGAIYDGYDVLDNWGQGTLVTVSSGGGGSGGGGSGGGGSDIQMTQSPSSLSASVGDRVTITCSASQDISNYLNWYQQKPGKAPKLLIYYTSNLHSGVPSRFSGSGSGTDFTLTISSLQPEDFATYYCQQYRKLPWTFGQGTKLEIKGGGGGGSGGGGSGGGGSSSSSKAPPPSEVQLLESGGGLVQPGGSLKLSCAASGFTFNTYAMNWVRQAPGKGLEWVARIRSKYNNYATYYADSVKDRFTISRDDSKNTAYLQMNNLKTEDTAVYYCVRHGNFGNSYVSWFAYWGQGTLVTVSSGGGGSGGGGSGGGGSELVVTQEPSLTVSPGGTVTLTCRSSTGAVTTSNYANWVQQKPGQAPRGLIGGTNKRAPGTPARFSGSLLGGKAALTLSGVQPEDEAEYYCALWYSNLWVFGGGTKLTVLDKTHTCPPCPAPEAAGGPSVFLFPPKPKDQLMISRTPEVTCVVVDVSHEDPEVKFNWYVDGVEVHNAKTKPREEQYASTYRVVSVLTVLHQDWLNGKEYKCKVSNKALPASIEKTISKAKGQPREPQVYTLPPSRDELTKNQVSLTCLVKGFYPSDIAVEWESNGQPENNYKTTPPVLDSDGSFFLYSKLTVDKSRWQQGNVFSCSVLHEALHNHYTQKSLSLSPG
# notes: human IgG1 Fc with L234A, L235A, T250Q, N297A, P331S, M428L and K447 deleted (EU); also called anti-BCMA×CD3 bispecific antibody
# Tests used:
# [1] = target: T1, human BCMA on BCMA positive cells (human, UniProt Q02223 1-184); experiment: cell-based or functional assay
# T1 sequence (looked up): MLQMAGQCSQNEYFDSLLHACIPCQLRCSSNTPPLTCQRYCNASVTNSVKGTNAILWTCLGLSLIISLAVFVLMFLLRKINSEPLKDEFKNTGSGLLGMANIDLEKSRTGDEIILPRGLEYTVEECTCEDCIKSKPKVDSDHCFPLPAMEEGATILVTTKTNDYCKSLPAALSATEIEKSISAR
# [2] = target: T2, cynomolgus monkey CD3 on cynomolgus monkey T cells (cynomolgus monkey, UniProt Q95LI5 22-198; Q95LI8 22-171; Q95LI7 23-181); experiment: flow cytometry on cynomolgus monkey T cells
# T2 construct: Native CD3 on T cells
# T2 sequence (Q95LI5 22-198 limits assumed, chain 1 of 3): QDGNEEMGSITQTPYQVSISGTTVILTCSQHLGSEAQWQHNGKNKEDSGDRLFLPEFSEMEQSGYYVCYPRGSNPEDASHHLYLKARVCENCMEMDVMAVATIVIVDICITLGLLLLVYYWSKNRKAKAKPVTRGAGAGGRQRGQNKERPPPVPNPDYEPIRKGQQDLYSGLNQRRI
# T2 sequence (Q95LI8 22-171 limits assumed, chain 2 of 3): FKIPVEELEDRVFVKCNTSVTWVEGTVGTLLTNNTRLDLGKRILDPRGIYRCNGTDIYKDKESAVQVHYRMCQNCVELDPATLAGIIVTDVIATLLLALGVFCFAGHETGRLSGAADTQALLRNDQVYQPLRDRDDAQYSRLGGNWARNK
# T2 sequence (Q95LI7 23-181 limits assumed, chain 3 of 3): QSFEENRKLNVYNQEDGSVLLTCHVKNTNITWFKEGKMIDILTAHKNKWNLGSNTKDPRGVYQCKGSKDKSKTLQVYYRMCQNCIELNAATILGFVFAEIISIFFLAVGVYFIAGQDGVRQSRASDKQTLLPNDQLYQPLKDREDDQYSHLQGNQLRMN
# Protocol: Centrifuge to remove supernatant, wash the plate twice with 1% DPBS, add 100 μl 1% DPBS to each well for resuspension, and detect the signal intensity by flow cytometry.
binder,measurement,setting,value
B1,EC50 of activation of NFAT-Jurkat reporter cells (luciferase) in the presence of H929 cells,[1],3.16 ng/mL
same,EC50 of cynomolgus monkey T cells killing NCI-H929 tumor cells mediated by AP163,[1],0.278 pM
same,EC50 of human T cells killing NCI-H929 tumor cells mediated by AP163,[1],0.239 pM
same,binding result,[2],binds
